From the FLAb antibody collection (doi:10.7554/elife.23156) come the findings set out here.

B1: scFv; the commonest letter at each place (parent)
chain 1: EVKLDETGGGLVQPGRPMKLSCVASGFTFSDYWMNWVRQSPEKGLEWVAQIRNKPYNYETYYSDSVKGRFTISRDDSKSSVYLQMNNLRVEDMGIYYCTGSYYGMDYWGQGTSVTVS
chain 2: DVVMTQTPLSLPVSLGDQASISCRSSQSLVHSNGNTYLRWYLQKPGQSPKVLIYKVSNRFSGVPDRFSGSGSGTDFTLKISRVEAEDLGVYFCSQSTHVPWTFGGGTKLEIK

In the data set “fluorescein” the parent is B1. The data set is described as follows: Kd (Tite-Seq). Conditions: with fluorescein; format: scFv 4-4-20, heavy + light.
In data set [1] the parent is B1. The data set is described as follows: yeast surface expression (ratio to wild type); higher = more expressed. Conditions: format: scFv 4-4-20, heavy + light.

For orientation: Kd means the equilibrium constant for the complex coming apart. In the case of chain 1 W33R W36Y, the Kd with fluorescein was at least 10 µM. Moreover, in data set [1], the yeast surface expression came to 0.561.
On the same counts, the results for chain 1 W33F N35T are at least 10 µM and 0.824.
The matching figures for chain 1 W33F N35Q: at least 10 µM and 0.614.
The matching figures for chain 1 W33F N35F: at least 10 µM and 0.3.
For chain 1 W108I G109F, the equilibrium dissociation constant (Kd) with fluorescein is 0.02 µM. For the same variant, the yeast surface expression in data set [1] is 0.186.
On the same counts, the results for chain 1 T28W S30G Y32K are 1.55 µM and 0.576.
On the same counts, the results for chain 1 W33T W36Y are at least 10 µM and 0.79.
The matching figures for chain 1 W33V V37S: at least 10 µM and 0.535.
With chain 1 W33V V37F, the Kd with fluorescein was at least 10 µM. For the same variant, in data set [1], the yeast surface expression came out at 0.82.
The matching figures for chain 1 W33A N35S W36M: at least 10 µM and 0.823.
For the variant chain 1 W33H M34R V37T, the equilibrium dissociation constant (Kd) with fluorescein is at least 10 µM. The yeast surface expression in data set [1] stood at 0.786.
On the same counts, the results for chain 1 W33N M34D are at least 10 µM and 0.567.
The matching figures for chain 1 W33N M34F: at least 10 µM and 0.815.
On the same counts, the results for chain 1 W33L V37D are 1.47 µM and 0.591.
On to chain 1 W33M M34H N35K, for which the Kd in the data set with fluorescein is at least 10 µM. In data set [1], the yeast surface expression came out at 0.305.
The matching figures for chain 1 W33I N35Y V37C: at least 10 µM and 0.443.
On to chain 1 W33C W36G, for which the dissociation constant Kd with fluorescein was at least 10 µM. In data set [1], the yeast surface expression came out at 1.12.
In the case of chain 1 W36K V37H, in the data set with fluorescein, the Kd is at least 10 µM. Besides, the yeast surface expression in data set [1] was 0.773.
Take chain 1 W36K V37N: in the data set with fluorescein, the Kd came out at 0.0592 µM. The yeast surface expression in data set [1] came to 0.168.
On to chain 1 T28Y F29T W33T, for which the equilibrium dissociation constant (Kd) in the data set with fluorescein was at least 10 µM. In addition, the yeast surface expression in data set [1] is 0.745.
As to chain 1 V37R, the Kd with fluorescein was found to be 1.08 µM. The yeast surface expression in data set [1] is 0.716.
On the same counts, the results for chain 1 V37I are 0.00239 µM and 0.916.
The matching figures for chain 1 V37T: 0.00606 µM and 0.626.
On the same counts, the results for chain 1 V37C are at most 0.000316 µM and 0.926.
With chain 1 V37D, the Kd with fluorescein turned out to be 0.00122 µM. In data set [1], the yeast surface expression is 1.05.
On the same counts, the results for chain 1 V37Y are 0.129 µM and 1.04.
On the same counts, the results for chain 1 V37L are 1.14 µM and 0.782.
For the variant chain 1 V37M, the Kd with fluorescein amounted to 0.000333 µM. Further, the yeast surface expression in data set [1] was found to be 0.958.
On the same counts, the results for chain 1 V37E are at least 10 µM and 0.597.
On the same counts, the results for chain 1 V37N are 0.00309 µM and 0.62.
On the same counts, the results for chain 1 V37A are 0.0434 µM and 0.784.
Take chain 1 V37W: in the data set with fluorescein, the Kd was 9.02 µM. Besides, the yeast surface expression in data set [1] was 0.746.
The matching figures for chain 1 V37S: 0.00561 µM and 0.673.
The matching figures for chain 1 V37F: 0.0259 µM and 0.9.
Take chain 1 V37K: the Kd with fluorescein turned out to be 3.55 µM. Besides, in data set [1], the yeast surface expression is 0.351.
On the same counts, the results for chain 1 V37G are 0.071 µM and 0.58.
As for chain 1 V37H, the equilibrium dissociation constant (Kd) in the data set with fluorescein was determined as 7.72 µM. Further, the yeast surface expression in data set [1] was determined as 0.831.
The matching figures for chain 1 V37Q: 0.00194 µM and 0.731.
On the same counts, the results for chain 1 V37P are at least 10 µM and 0.676.
The matching figures for chain 1 W108L G109R: at least 10 µM and 0.296.
chain 1 W108L G109I: the Kd with fluorescein was at least 10 µM. Moreover, in data set [1], the yeast surface expression is 0.203.
For chain 1 W33D N35G, the dissociation constant Kd in the data set with fluorescein is at least 10 µM. Moreover, the yeast surface expression in data set [1] is 0.941.
The matching figures for chain 1 W33P M34H: at least 10 µM and 0.508.
The matching figures for chain 1 W36H V37F: at least 10 µM and 0.307.
The matching figures for chain 1 W36H V37E: at least 10 µM and 0.267.
On to chain 1 W108D G109I, for which, in the data set with fluorescein, the Kd is at least 10 µM. Further, in data set [1], the yeast surface expression is 0.209.
The matching figures for chain 1 W108D G109Y: at least 10 µM and 0.271.
On the same counts, the results for chain 1 W36L V37Q are at least 10 µM and 0.537.
Regarding chain 1 W33Q N35Y, the dissociation constant (Kd) with fluorescein is at least 10 µM. Besides, the yeast surface expression in data set [1] turned out to be 0.315.
On the same counts, the results for chain 1 W33Q N35W are at least 10 µM and 1.01.
The matching figures for chain 1 W33Q N35E: at least 10 µM and 0.594.
Regarding chain 1 T28W F29P S30F, in the data set with fluorescein, the Kd was at least 10 µM. Besides, the yeast surface expression in data set [1] was determined as 0.601.
On the same counts, the results for chain 1 W33I M34F are at least 10 µM and 1.
On the same counts, the results for chain 1 W33V N35Q are at least 10 µM and 0.772.
On the same counts, the results for chain 1 W33V N35T are at least 10 µM and 0.89.
chain 1 W108K G109H: the Kd with fluorescein is at least 10 µM. In data set [1], the yeast surface expression is 0.44.
The matching figures for chain 1 W108K G109L: at least 10 µM and 0.219.
Turning to chain 1 W33K V37L, the dissociation constant Kd in the data set with fluorescein worked out at 0.345 µM. Further, the yeast surface expression in data set [1] was 0.761.
As to chain 1 W108N G109N, the Kd in the data set with fluorescein is at least 10 µM. Besides, the yeast surface expression in data set [1] is 0.335.
On the same counts, the results for chain 1 W108N G109P are at least 10 µM and 0.396.
On the same counts, the results for chain 1 T28Y D31Y are 0.00184 µM and 0.779.
chain 1 T28Y D31V: the Kd in the data set with fluorescein was at least 10 µM. In addition, in data set [1], the yeast surface expression amounted to 0.509.
The matching figures for chain 1 T28W W33F W36P: at least 10 µM and 0.554.
The matching figures for chain 1 W33M W36P: at least 10 µM and 0.591.
The matching figures for chain 1 T28Y Y32K: at least 10 µM and 0.818.
Take chain 1 W108H G109C: the Kd with fluorescein was at least 10 µM. In addition, in data set [1], the yeast surface expression was 0.362.
The matching figures for chain 1 W33E M34W: at least 10 µM and 0.966.
On the same counts, the results for chain 1 W33E M34L are at least 10 µM and 0.721.
The matching figures for chain 1 W33A V37N: at least 10 µM and 0.49.
Turning to chain 1 W33A V37W, the Kd with fluorescein was at least 10 µM. In addition, the yeast surface expression in data set [1] worked out at 0.625.
The matching figures for chain 1 T28Y: 0.00325 µM and 0.919.
On the same counts, the results for chain 1 W108C G109E are at least 10 µM and 0.262.
The matching figures for chain 1 W108M G109E: 0.0944 µM and 0.408.
In the case of chain 1 W33D W36M, in the data set with fluorescein, the Kd is at least 10 µM. Besides, the yeast surface expression in data set [1] was 0.165.
Consider chain 1 T28Y M34W, for which the Kd with fluorescein is 0.0692 µM. For the same variant, the yeast surface expression in data set [1] amounted to 0.6.
The matching figures for chain 1 W36M V37W: at least 10 µM and 0.496.
On the same counts, the results for chain 1 W36M V37P are at least 10 µM and 0.36.
The matching figures for chain 1 W36M V37S: at least 10 µM and 0.415.
For the variant chain 1 W33R V37W, the Kd with fluorescein is at least 10 µM. Besides, the yeast surface expression in data set [1] worked out at 0.543.
The matching figures for chain 1 W33R V37D: 0.205 µM and 1.19.
The matching figures for chain 1 T28W N35H: at least 10 µM and 0.727.
With chain 1 T28W N35A, the Kd in the data set with fluorescein was at least 10 µM. In addition, the yeast surface expression in data set [1] is 0.862.
On to chain 1 W33P N35Y, for which the Kd with fluorescein came to 0.205 µM. Besides, the yeast surface expression in data set [1] amounted to 0.393.
The matching figures for chain 1 W33D V37C: at least 10 µM and 0.802.
For the variant chain 1 W36G V37N, the Kd in the data set with fluorescein was at least 10 µM. Besides, in data set [1], the yeast surface expression turned out to be 0.597.
On the same counts, the results for chain 1 W36G V37Q are at least 10 µM and 1.13.
The matching figures for chain 1 T28Y W36M: at least 10 µM and 0.486.
As for chain 1 T28Y W36Q, the Kd in the data set with fluorescein was at least 10 µM. In addition, in data set [1], the yeast surface expression worked out at 0.297.
The matching figures for chain 1 W33D M34W: at least 10 µM and 1.03.
On the same counts, the results for chain 1 W33D M34Q are at least 10 µM and 0.754.
On the same counts, the results for chain 1 W33C M34Q are at least 10 µM and 0.755.
On to chain 1 W33C M34K, for which the Kd with fluorescein was at least 10 µM. The yeast surface expression in data set [1] amounted to 0.774.
The matching figures for chain 1 W36P V37Y: at least 10 µM and 0.75.
The matching figures for chain 1 W33C V37W: at least 10 µM and 0.503.
On the same counts, the results for chain 1 T28W Y32W are at least 10 µM and 0.65.
On to chain 1 T28Y D31W V37T, for which the Kd with fluorescein worked out at 0.00638 µM. The yeast surface expression in data set [1] came to 0.808.
On the same counts, the results for chain 1 W33H V37F are at least 10 µM and 0.859.
On the same counts, the results for chain 1 T28Y M34L N35C are at least 10 µM and 0.495.
The matching figures for chain 1 W33M M34P: at least 10 µM and 0.576.
For chain 1 W33M M34I, the dissociation constant Kd in the data set with fluorescein is at least 10 µM. For the same variant, the yeast surface expression in data set [1] is 0.708.
The matching figures for chain 1 W33A W36H: at least 10 µM and 0.549.
On the same counts, the results for chain 1 W33T N35D V37W are at least 10 µM and 0.582.
Take chain 1 T28Y S30L: the Kd in the data set with fluorescein turned out to be 0.00708 µM. Further, the yeast surface expression in data set [1] was determined as 0.792.
Regarding chain 1 T28Y S30P, in the data set with fluorescein, the Kd turned out to be 0.000804 µM. Besides, the yeast surface expression in data set [1] was determined as 1.08.
On the same counts, the results for chain 1 T28W S30F are 0.00606 µM and 0.69.
On the same counts, the results for chain 1 T28W S30A are 0.00444 µM and 0.868.
On the same counts, the results for chain 1 W33I V37S are at least 10 µM and 0.617.
Regarding chain 1 W36D V37M, the Kd with fluorescein was at least 10 µM. Further, in data set [1], the yeast surface expression amounted to 1.25.
On to chain 1 W36D V37H, for which, in the data set with fluorescein, the dissociation constant (Kd) is at least 10 µM. In data set [1], the yeast surface expression came to 0.21.
The matching figures for chain 1 W33E N35R: at least 10 µM and 0.588.
On the same counts, the results for chain 1 W33E N35C are at least 10 µM and 0.797.
On the same counts, the results for chain 1 W33E N35K are at least 10 µM and 0.455.
For the variant chain 1 W33E N35G, the Kd with fluorescein is at least 10 µM. Further, the yeast surface expression in data set [1] amounted to 1.05.
The matching figures for chain 1 W33F W36C: at least 10 µM and 0.455.
As for chain 1 W33F W36L, the Kd in the data set with fluorescein was at least 10 µM. Besides, the yeast surface expression in data set [1] turned out to be 0.594.
